# Source: the supplement of paper PMC7125110
# ± gives the standard error. For some of these results: Fewer inactive variants are shown than the library holds.
# B1: glmS ribozyme (parent)
# chain: AUAAAAGCGCCAGAACUACAGAAAUGUAGUUGACGAGGAGGAGGUUUAUCGAAUUUUCGGCGGAUGCCUCCAAA
# Assays:
# Conditions in all cases: with glucosamine-6-phosphate
# glucosamine-6-phosphate [1] = variants of: B1; assay: kcat; higher = faster cleavage; RNA array
# In short: (§1)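 Barcoded ribozyme variants were transcribed in situ on sequenced MiSeq chips by E. coli RNA polymerase. At 37 °C, a hybridised Cy3 probe tracked them while glucosamine-6-phosphate (40 μM to 10 mM) in HEPES/KCl/Mg(OAc)2 buffer flowed in and tiles were imaged over ~14 h. Per-tile medians of signals normalised to baseline and to non-cleaving reference variants were fit to one- or two-exponential decays, giving kobs. kcat and KM came from weighted Michaelis–Menten fits across concentrations.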
# glucosamine-6-phosphate [2] = variants of: B1; assay: KM; higher = weaker cofactor use; RNA array
# In short: as §1
# glucosamine-6-phosphate [3] = variants of: B1; assay: self-cleavage kobs at 2500 uM GlcN6P; higher = faster cleavage; RNA array
# In short: as §1
# glucosamine-6-phosphate [4] = variants of: B1; assay: self-cleavage kobs at 10000 uM GlcN6P; higher = faster cleavage; RNA array
# In short: as §1
# glucosamine-6-phosphate [5] = variants of: B1; assay: self-cleavage kobs at 40 uM GlcN6P; higher = faster cleavage; RNA array
# In short: as §1
# glucosamine-6-phosphate [6] = variants of: B1; assay: self-cleavage kobs at 160 uM GlcN6P; higher = faster cleavage; RNA array
# In short: as §1
# glucosamine-6-phosphate [7] = variants of: B1; assay: self-cleavage kobs at 640 uM GlcN6P; higher = faster cleavage; RNA array
# In short: as §1
Variant,kcat (glucosamine-6-phosphate [1]),KM (glucosamine-6-phosphate [2]),self-cleavage kobs at 2500 uM GlcN6P (glucosamine-6-phosphate [3]),self-cleavage kobs at 10000 uM GlcN6P (glucosamine-6-phosphate [4]),self-cleavage kobs at 40 uM GlcN6P (glucosamine-6-phosphate [5]),self-cleavage kobs at 160 uM GlcN6P (glucosamine-6-phosphate [6]),self-cleavage kobs at 640 uM GlcN6P (glucosamine-6-phosphate [7])
G13A A39C,0.000118 ± 1.9e-05 s⁻¹,3740 ± 1200 µM,4.55e-05 ± 7.4e-06 s⁻¹,8.77e-05 ± 1.6e-05 s⁻¹,,,
C11U U30G,0.00224 ± 0.00076 s⁻¹,,0.00185 ± 0.00033 s⁻¹,0.00194 ± 0.00021 s⁻¹,0.0001 ± 1.4e-05 s⁻¹,0.00018 ± 2.9e-05 s⁻¹,0.000444 ± 7.4e-05 s⁻¹
A12C A14U C16U U46G,3.1e-05 ± 6.8e-06 s⁻¹,,,,,,
A12C A39C,0.000611 ± 4.3e-05 s⁻¹,2060 ± 260 µM,0.000343 ± 3e-05 s⁻¹,0.000499 ± 4.2e-05 s⁻¹,1.91e-05 ± 9.4e-06 s⁻¹,3.75e-05 ± 7.9e-06 s⁻¹,0.000149 ± 1.2e-05 s⁻¹
A12G C71G,0.000425 ± 2.2e-05 s⁻¹,4400 ± 370 µM,0.00015 ± 1.6e-05 s⁻¹,0.000298 ± 3.1e-05 s⁻¹,,,5.45e-05 ± 6.3e-06 s⁻¹
G13A C68U,6.42e-05 ± 2.2e-06 s⁻¹,234 ± 85 µM,5.81e-05 ± 9e-06 s⁻¹,6.26e-05 ± 5.5e-06 s⁻¹,,,5.07e-05 ± 1.2e-05 s⁻¹
A12U C67G,0.00362 ± 0.00062 s⁻¹,791 ± 210 µM,0.00226 ± 0.00035 s⁻¹,0.00426 ± 0.00054 s⁻¹,0.00019 ± 2.1e-05 s⁻¹,0.000542 ± 0.00011 s⁻¹,0.0015 ± 0.00029 s⁻¹
A12C C58G,0.0002 ± 2.6e-05 s⁻¹,1730 ± 640 µM,0.000106 ± 1.8e-05 s⁻¹,0.000177 ± 2.2e-05 s⁻¹,,,6.55e-05 ± 1.8e-05 s⁻¹
A12U G41U,0.0013 ± 0.00058 s⁻¹,,0.00212 ± 0.00022 s⁻¹,,0.000239 ± 2.1e-05 s⁻¹,0.00041 ± 5.1e-05 s⁻¹,0.000814 ± 8.1e-05 s⁻¹
A12U G43U,0.000148 ± 3e-05 s⁻¹,,0.000134 ± 2.2e-05 s⁻¹,0.00012 ± 1.2e-05 s⁻¹,,,2.86e-05 ± 1.1e-05 s⁻¹
G13A C50G C61G G66U,0.000136 ± 9.6e-06 s⁻¹,17.2 ± 6.7 µM,0.000149 ± 3.8e-05 s⁻¹,0.000126 ± 2.6e-05 s⁻¹,9.58e-05 ± 1.7e-05 s⁻¹,0.000112 ± 3.4e-05 s⁻¹,0.000165 ± 5.4e-05 s⁻¹
A12C C61U,1.24e-05 ± 3.6e-06 s⁻¹,,,,< 1e-05 s⁻¹,,
A12U U69A,0.000227 ± 4.2e-05 s⁻¹,,0.000186 ± 2.9e-05 s⁻¹,0.000303 ± 4.8e-05 s⁻¹,0.000106 ± 1.6e-05 s⁻¹,0.000124 ± 2.9e-05 s⁻¹,0.000292 ± 4.6e-05 s⁻¹
C11U A15U,0.000594 ± 3.8e-05 s⁻¹,1540 ± 230 µM,0.000375 ± 5.4e-05 s⁻¹,0.000511 ± 4.5e-05 s⁻¹,,4.54e-05 ± 1.7e-05 s⁻¹,0.000178 ± 2.4e-05 s⁻¹
C11U A15G,0.00211 ± 0.00043 s⁻¹,1010 ± 320 µM,0.00141 ± 0.00022 s⁻¹,0.0023 ± 0.00037 s⁻¹,0.000103 ± 1.4e-05 s⁻¹,0.000249 ± 4.3e-05 s⁻¹,0.000746 ± 8.9e-05 s⁻¹
G13A U31A,0.00146 ± 4.2e-05 s⁻¹,9800 ± 410 µM,0.000292 ± 6.9e-05 s⁻¹,0.00074 ± 0.0001 s⁻¹,,,9.06e-05 ± 1.9e-05 s⁻¹
G13A U31C,0.00123 ± 0.00012 s⁻¹,4560 ± 740 µM,0.000441 ± 6.9e-05 s⁻¹,0.00084 ± 0.00011 s⁻¹,,3.44e-05 ± 1.2e-05 s⁻¹,0.000169 ± 3.3e-05 s⁻¹
A12C U56A,0.0197 ± 0.004 s⁻¹,4980 ± 1400 µM,0.0059 ± 0.00083 s⁻¹,0.0135 ± 0.0011 s⁻¹,0.00021 ± 2.5e-05 s⁻¹,0.000528 ± 7.5e-05 s⁻¹,0.00217 ± 0.00031 s⁻¹
A12G C34U C58U C68G,3.16e-05 ± 4.5e-06 s⁻¹,,,,,,
A12G U31G,0.000573 ± 0.00012 s⁻¹,4660 ± 1500 µM,0.000254 ± 3.4e-05 s⁻¹,0.000374 ± 3.9e-05 s⁻¹,,,6.61e-05 ± 8.2e-06 s⁻¹
G13A U54C,0.000629 ± 0.00013 s⁻¹,2490 ± 920 µM,0.000405 ± 6.2e-05 s⁻¹,0.000458 ± 7.1e-05 s⁻¹,,2.7e-05 ± 1e-05 s⁻¹,0.000134 ± 2.4e-05 s⁻¹
A12G A42G,0.00162 ± 0.0003 s⁻¹,4880 ± 1300 µM,0.00064 ± 7.7e-05 s⁻¹,0.00103 ± 0.00012 s⁻¹,,3.49e-05 ± 1.3e-05 s⁻¹,0.000189 ± 1.9e-05 s⁻¹
G13A G60U,< 1e-05 s⁻¹,,,< 1e-05 s⁻¹,,,
G13A G40U,8.11e-05 ± 1e-05 s⁻¹,2810 ± 990 µM,4.21e-05 ± 8.5e-06 s⁻¹,6.21e-05 ± 8.8e-06 s⁻¹,< 1e-05 s⁻¹,,
C11U C71U,0.00111 ± 0.0002 s⁻¹,1030 ± 320 µM,0.000796 ± 0.00014 s⁻¹,0.00102 ± 0.0002 s⁻¹,0.000116 ± 4.3e-05 s⁻¹,0.000143 ± 2.6e-05 s⁻¹,0.000418 ± 7.1e-05 s⁻¹
A12U A52C A53U C70G,1.09e-05 ± 3.5e-06 s⁻¹,,,,,,
A12U U30G,0.0227 ± 0.0046 s⁻¹,983 ± 280 µM,0.0279 ± 0.0091 s⁻¹,0.0211 ± 0.0039 s⁻¹,0.000931 ± 0.00012 s⁻¹,,0.00794 ± 0.0013 s⁻¹
A12U U30A,0.0401 ± 0.009 s⁻¹,1980 ± 540 µM,,0.0321 ± 0.007 s⁻¹,0.000782 ± 0.00011 s⁻¹,,0.0124 ± 0.0029 s⁻¹
A12G U49G,0.00103 ± 0.00035 s⁻¹,,,6.93e-05 ± 1.7e-05 s⁻¹,,,
A12C A52G,0.000882 ± 0.00021 s⁻¹,2290 ± 880 µM,0.000359 ± 6.3e-05 s⁻¹,0.00082 ± 0.00011 s⁻¹,2.37e-05 ± 1e-05 s⁻¹,4.98e-05 ± 1.3e-05 s⁻¹,0.000216 ± 2.4e-05 s⁻¹
